In patent US20210107998A1 (Boehringer Ingelheim, published 2021):

T1: Linked human IL-23 (Boehringer Ingelheim Pharmaceuticals, Inc.) (human, UniProt P29460 23-328)
T1 sequence 1: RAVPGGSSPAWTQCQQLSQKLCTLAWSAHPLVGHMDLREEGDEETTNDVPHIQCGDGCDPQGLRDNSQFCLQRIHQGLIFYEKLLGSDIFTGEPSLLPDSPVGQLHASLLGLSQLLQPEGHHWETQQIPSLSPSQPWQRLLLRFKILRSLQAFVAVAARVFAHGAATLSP
T1 sequence 2: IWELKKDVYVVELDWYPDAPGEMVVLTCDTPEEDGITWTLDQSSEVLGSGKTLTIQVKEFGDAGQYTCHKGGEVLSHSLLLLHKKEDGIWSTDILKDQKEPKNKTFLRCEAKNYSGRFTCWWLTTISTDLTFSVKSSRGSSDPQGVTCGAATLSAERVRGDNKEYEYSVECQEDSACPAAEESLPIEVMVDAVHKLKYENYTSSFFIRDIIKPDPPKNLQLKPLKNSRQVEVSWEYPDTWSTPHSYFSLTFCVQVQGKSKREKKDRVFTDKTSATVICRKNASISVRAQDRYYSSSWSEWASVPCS

T2: Recombinant human IL-23 (human, UniProt P29460 23-328)
T2 sequence 1: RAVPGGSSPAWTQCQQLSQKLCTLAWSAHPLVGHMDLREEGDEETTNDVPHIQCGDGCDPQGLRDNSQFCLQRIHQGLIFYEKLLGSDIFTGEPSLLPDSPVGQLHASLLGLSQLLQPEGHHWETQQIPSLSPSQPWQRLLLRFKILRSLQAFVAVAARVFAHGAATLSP
T2 sequence 2: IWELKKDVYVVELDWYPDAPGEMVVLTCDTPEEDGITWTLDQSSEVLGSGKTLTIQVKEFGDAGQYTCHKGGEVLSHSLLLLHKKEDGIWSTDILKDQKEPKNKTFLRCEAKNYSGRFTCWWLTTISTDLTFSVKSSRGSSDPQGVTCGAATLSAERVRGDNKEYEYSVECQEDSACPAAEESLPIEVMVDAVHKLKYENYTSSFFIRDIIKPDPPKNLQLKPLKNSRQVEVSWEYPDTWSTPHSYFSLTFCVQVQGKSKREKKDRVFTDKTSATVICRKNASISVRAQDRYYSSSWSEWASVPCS


How the values were obtained:
[1] = target: membrane-bound human BAFF on fixed CHO-K1 cells (human, UniProt Q9Y275 1-285); assay: cell-based or functional assay
cynomolgus IL-23 [2] = target: T3, cynomolgus IL-23 (cynomolgus, UniProt H6WS56 20-189); assay: SPR (ProteOn XPR36), compound captured on goat anti-human IgG Fc, antigen injected
Procedure: (§1) SPR experiments were performed on a ProteOn XPR36 instrument (Bio Rad). A GLM chip was preconditioned with sequential injections of 60 sec of 0.5% SDS, 50 mM NaOH, and 100 mM HCl at a flow rate of 30 μl/min both vertical and horizontal directions.
(§2) The preconditioned GLM chip was then activated by an injection of EDC (76.7 mg/ml) and sulfo-NHS (21.7 mg/ml) mixture with ratio of 1:1 in 6 horizontal channels. Goat-anti-human IgG (GAHA) Fc gamma (Invitrogen) at a concentration of 30 μg/ml in 10 mM, pH 5.0 sodium acetate buffer was immobilized to 8,000 resonance units on the activated GLM chip in 6 horizontal channels. The chip was finally deactivated with 1 M ethanolamine HCl in 6 horizontal channels. The prepared GAHA chip was rotated to vertical direction to capture test compounds, over 5 vertical channels and the last channel was used as a column reference. The captured chip was then rotated again to the horizontal direction for binding. […] The dissociation was allowed for 2 hour. The GAHA surface was regenerated using short pulse injection (18 seconds) of 0.85% phosphoric acid (Bio Rad) at a flow rate of 100 μl/min both horizontal and vertical directions after 10 min association and 2 hr dissociation. The regenerated GAHA was ready for another binding cycle.

cynomolgus BAFF = target: T4, cynomolgus BAFF (cynomolgus, UniProt A0A2K5V2X4 134-285); assay: as above
T4 construct: construct not described
Procedure: as §1, §2

[3] = target: T1, Linked human IL-23 (Boehringer …); assay: as above
Procedure: as §1, §2

human BAFF [4] = target: T5, human BAFF (human, UniProt Q9Y275 134-285, limits assumed); assay: as above
T5 construct: also called hu BAFF; hBAFF
Procedure: as §1, §2

cynomolgus IL-23 [5] = target: T3, cynomolgus IL-23; assay: cell-based or functional assay
Recombinant human IL-23 [6] = target: T2, Recombinant human IL-23; assay: cell-based or functional assay
[7] = target: T6, Recombinant human BAFF trimer (Boehringer Ingelheim Pharmaceuticals, Inc.) (human, UniProt Q9Y275 134-285, limits assumed); assay: cell-based or functional assay
[8] = target: T6, Recombinant human BAFF trimer …; assay: cell-based or functional assay; remark: listed apart in the source
[9] = target: Recombinant human BAFF 60mer (Boehringer Ingelheim Pharmaceuticals, Inc.) (human, UniProt Q9Y275 134-285, limits assumed); assay: cell-based or functional assay
[10] = target: Recombinant cynomolgus BAFF trimer (Boehringer Ingelheim Pharmaceuticals, Inc.) (cynomolgus, UniProt A0A2K5V2X4 134-285); assay: cell-based or functional assay
Recombinant human IL-23 [11] = target: T2, Recombinant human IL-23; assay: BLI (Octet RED96, streptavidin tips), compound incubated 48 h at 37 C in whole blood vs kinetic buffer
Procedure: (§3) A whole blood interference assay was developed on an Octet RED96 to detect the effects of non-specific binding or off-target binding for compounds in the presence of whole blood (WB). The compound solutions in whole blood and 1× kinetic running buffer (1×kb) were incubated at a temperature of 37° C. for 48 hours. Kinetic measurements for the incubated compound samples were performed with an Octet RED96 equipped with streptavidin (SA) biosensor tips (ForteBio, Menlo Park, Calif.) at 27° C. The ratio of the on-rates/binding signals in buffer and whole blood were reported. A ratio <2 was considered to show no interference.

human BAFF [12] = target: T5, human BAFF; assay: as above
Procedure: as §3

Recombinant human IL-23 [13] = target: T2, Recombinant human IL-23; assay: cell-based or functional assay; remark: listed apart in the source

Binder | IC50, NFkB luciferase reporter, human BAFFR-CHO cells stimulated with fixed human BAFF CHO-K1 cells [1] [nM] | IC90, NFkB luciferase reporter, human BAFFR-CHO cells stimulated with fixed human BAFF CHO-K1 cells [1] [nM] | Kd (cynomolgus IL-23 [2]) [nM] | Kd (cynomolgus BAFF) [nM] | Kd [3] [nM] | Kd (human BAFF [4]) [nM] | IC50, IL-23-induced mouse IL-17 release from mouse splenocytes (cynomolgus IL-23 [5]) [nM] | IC90, IL-23-induced mouse IL-17 release from mouse splenocytes (cynomolgus IL-23 [5]) [nM] | IC50, IL-23-induced mouse IL-17 release from mouse splenocytes (Recombinant human IL-23 [6]) [nM] | IC90, IL-23-induced mouse IL-17 release from mouse splenocytes (Recombinant human IL-23 [6]) [nM] | IC50 Geomean, NFkB luciferase reporter, human TACI-CHO cells [7] [nM] | IC90 Geomean, NFkB luciferase reporter, human TACI-CHO cells [7] [nM] | IC50, NFkB luciferase reporter, human BAFFR-CHO cells [8] [nM] | IC90, NFkB luciferase reporter, human BAFFR-CHO cells [8] [nM] | IC50, NFkB luciferase reporter, human BAFFR-CHO cells [9] [nM] | IC90, NFkB luciferase reporter, human BAFFR-CHO cells [9] [nM] | IC50 Geomean, NFkB luciferase reporter, human BAFFR-CHO cells [10] [nM] | IC90 Geomean, NFkB luciferase reporter, human BAFFR-CHO cells [10] [nM] | Ratio of binding signal in WB/kinetic buffer (Recombinant human IL-23 [11]) | Ratio of binding signal in WB/kinetic buffer (human BAFF [12]) | further results
Compound A (bispecific antibody, human IgG1, kappa, L234A L235A, Made in CHO-S cells) chain 1: DIQMTQSPSSLSASVGDRVTITCKASRDVAIAVAWYQQKPGKVPKLLIYWASTRHTGVPSRFSGSGSRTDFTLTISSLQPEDVADYFCHQYSSYPFTFGSGTKLEIKGGGSGGGGQVQLVQSGAEVKKPGASVKVSCKASGYSFSTFFIHWVRQAPGQGLEWIGRIDPNSGATKYNEKFESRVTMTRDTSISTAYMELSRLRSDDTAVYYCARGEDLLIRTDALDYWGQGTSVTVSSLGGGSGASTKGPSVFPLAPSSKSTSGGTAALGCLVKDYFPEPVTVSWNSGALTSGVHTFPAVLQSSGLYSLSSVVTVPSSSLGTQTYICNVNHKPSNTKVDKRVEPKSCDKTHTCPPCPAPEAAGGPSVFLFPPKPKDTLYITREPEVTCVVVDVSHEDPEVKFNWYVDGVEVHNAKTKPREEQYNSTYRVVSVLTVLHQDWLNGKEYKCKVSNKALPAPIEKTISKAKGQPREPQVYTLPPSREEMTKNQVSLTCLVKGFYPSDIAVEWESNGQPENNYKTTPPVLDSDGSFFLYSKLTVDKSRWQQGNVFSCSVMHEALHNHYTQKSLSLSPG chain 2: DIQMTQSPSSLSASVGDRVSITCKASQNAGIDVAWFQQKPGKAPKLLIYSKSNRYTGVPSRFSGSGSGTDFTLTISSLQPEDFATYYCLQYRSYPRTFGQGTKLEIKGGGSGGGGQVQLVQSGAEVKKPGSSVKVSCKASGYTFTDQTIHWMRQAPGQGLEWIGYIYPRDDSPKYNENFKGKVTITADKSTSTAYMELSSLRSEDTAVYYCAIPDRSGYAWFIYWGQGTLVTVSSLGGGSGRTVAAPSVFIFPPSDEQLKSGTASVVCLLNNFYPREAKVQWKVDNALQSGNSQESVTEQDSKDSTYSLSSTLTLSKADYEKHKVYACEVTHQGLSSPVTKSFNRGEC | 0.118 | 1.02 | < 0.015 | < 0.015 | < 0.015 | < 0.015 | 0.155 | 1.31 | 0.146 | 1.65 | 0.159 | 0.417 | 0.043 | 0.18 | 0.006 | 0.019 | 0.132 | 0.191 | 1.1 | 1.2 | IC50, STAT3-luciferase reporter in DB lymphoblast B cells (Recombinant human IL-23 [13]): 0.145 nM; IC90, STAT3-luciferase reporter in DB lymphoblast B cells (Recombinant human IL-23 [13]): 1.23 nM
Compound D (bispecific antibody, human IgG4 S228P, kappa, Large chain: IL23A(1) VL - BAFF(6) VH - LGGGSG - IgG4-Pro-YTE; small chain: BAFF(6) VL - IL23A(1) VH - LGGGSG - CL; Tetravalent format) chain 1: DIQMTQSPSSLSASVGDRVTITCKASRDVAIAVAWYQQKPGKVPKLLIYWASTRHTGVPSRFSGSGSRTDFTLTISSLQPEDVADYFCHQYSSYPFTFGSGTKLEIKGGGSGGGGQVQLVQSGAEVKKPGASVKVSCKASGYSFSTFFIHWVRQRPGQGLEWIGRIDPNSGATKYNEKFESKVTLTRDTSISTAYMELSRLRSDDTAVYYCARGEDLLIRTDALDYWGQGTSVTVSSLGGGSGASTKGPSVFPLAPCSRSTSESTAALGCLVKDYFPEPVTVSWNSGALTSGVHTFPAVLQSSGLYSLSSVVTVPSSSLGTKTYTCNVDHKPSNTKVDKRVESKYGPPCPPCPAPEFLGGPSVFLFPPKPKDTLYITREPEVTCVVVDVSQEDPEVQFNWYVDGVEVHNAKTKPREEQFNSTYRVVSVLTVLHQDWLNGKEYKCKVSNKGLPSSIEKTISKAKGQPREPQVYTLPPSQEEMTKNQVSLTCLVKGFYPSDIAVEWESNGQPENNYKTTPPVLDSDGSFFLYSRLTVDKSRWQEGNVFSCSVMHEALHNHYTQKSLSLSLG chain 2: DIQMTQSPSSLSASVGDRVSITCKASQNAGIDVAWFQQKPGKAPKLLIYSKSNRYTGVPSRFSGSGSGTDFTLTISSLQPEDFADYYCLQYRSYPRTFGGGTKLEIKGGGSGGGGQVQLVQSGAEVKKPGSSVKVSCKASGYTFTDQTIHWMRQAPGQGLEWIGYIYPRDDSPKYNENFKGKVTITADKSTSTAYMELSSLRSEDTAVYYCAIPDRSGYAWFIYWGQGTLVTVSSLGGGSGRTVAAPSVFIFPPSDEQLKSGTASVVCLLNNFYPREAKVQWKVDNALQSGNSQESVTEQDSKDSTYSLSSTLTLSKADYEKHKVYACEVTHQGLSSPVTKSFNRGEC | 0.104 | 0.938 | < 0.015 | < 0.015 | < 0.015 | < 0.015 | 0.097 | 1.55 | 0.105 | 1.7 | 0.163 | 0.436 | 0.034 | 0.172 | 0.004 | 0.012 | 0.118 | 0.248 | 1.7 | 1.3 | IC50, STAT3-luciferase reporter in DB lymphoblast B cells (Recombinant human IL-23 [13]): 0.128 nM; IC90, STAT3-luciferase reporter in DB lymphoblast B cells (Recombinant human IL-23 [13]): 3.09 nM
